Results taken from US20080206243A1 (Genentech, published 2008).

B1: native VEGF(8-109) (ligand, human, UniProt P15692 214-315, looked up)
chain: GQNHHEVVKFMDVYQRSYCHPIETLVDIFQEYPDEIEYIFKPSCVPLMRCGGCCNDEGLECVPTEESNITMQIMRIKPHQGQHIGEMSFLQHNKCECRPKKD
notes: range 8-109; Residues 8-109 are counted on the native (mature) 165-amino acid VEGF, not on the precursor with its signal peptide; the listing holds only primers; also called native protein

Key:
KDR [1] = biological target: T1, KDR (UniProt P35968 20-764, limits assumed); assay: soluble radio-immuno receptor-binding assay (RIA)
T1 construct: The receptor construct used in the RIA is not described; also called KDR receptor; VEGFR-2
T1 sequence (P35968 20-764 limits assumed): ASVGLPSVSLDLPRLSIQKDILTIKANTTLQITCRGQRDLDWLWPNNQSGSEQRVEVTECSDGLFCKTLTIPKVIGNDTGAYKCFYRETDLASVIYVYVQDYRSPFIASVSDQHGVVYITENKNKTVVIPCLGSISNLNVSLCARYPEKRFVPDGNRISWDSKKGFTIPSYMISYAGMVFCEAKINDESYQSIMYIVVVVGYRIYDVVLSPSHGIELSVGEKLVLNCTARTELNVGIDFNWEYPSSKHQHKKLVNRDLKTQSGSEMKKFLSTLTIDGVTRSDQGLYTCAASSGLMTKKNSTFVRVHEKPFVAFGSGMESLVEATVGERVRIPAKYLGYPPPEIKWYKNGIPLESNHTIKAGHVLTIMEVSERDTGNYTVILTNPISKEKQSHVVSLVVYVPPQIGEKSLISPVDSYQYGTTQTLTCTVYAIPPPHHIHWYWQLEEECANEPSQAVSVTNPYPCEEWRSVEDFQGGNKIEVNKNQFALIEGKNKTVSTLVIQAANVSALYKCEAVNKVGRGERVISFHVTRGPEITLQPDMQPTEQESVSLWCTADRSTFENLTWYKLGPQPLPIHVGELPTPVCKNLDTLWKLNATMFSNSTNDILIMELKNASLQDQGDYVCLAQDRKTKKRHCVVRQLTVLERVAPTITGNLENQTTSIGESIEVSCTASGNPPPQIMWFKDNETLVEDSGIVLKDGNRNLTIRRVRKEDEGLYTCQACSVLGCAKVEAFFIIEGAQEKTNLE

KDR [2] = biological target: T1, KDR; assay: soluble radio-immuno receptor-binding assay (RIA); target KDR
Flt-1 = biological target: T2, Flt-1 (UniProt P17948 27-758, limits assumed); assay: soluble radio-immuno receptor-binding assay (RIA); target Flt-1
T2 construct: The receptor construct used in the RIA is not described; also called Flt-1 receptor; VEGFR-1
T2 sequence (P17948 27-758 limits assumed): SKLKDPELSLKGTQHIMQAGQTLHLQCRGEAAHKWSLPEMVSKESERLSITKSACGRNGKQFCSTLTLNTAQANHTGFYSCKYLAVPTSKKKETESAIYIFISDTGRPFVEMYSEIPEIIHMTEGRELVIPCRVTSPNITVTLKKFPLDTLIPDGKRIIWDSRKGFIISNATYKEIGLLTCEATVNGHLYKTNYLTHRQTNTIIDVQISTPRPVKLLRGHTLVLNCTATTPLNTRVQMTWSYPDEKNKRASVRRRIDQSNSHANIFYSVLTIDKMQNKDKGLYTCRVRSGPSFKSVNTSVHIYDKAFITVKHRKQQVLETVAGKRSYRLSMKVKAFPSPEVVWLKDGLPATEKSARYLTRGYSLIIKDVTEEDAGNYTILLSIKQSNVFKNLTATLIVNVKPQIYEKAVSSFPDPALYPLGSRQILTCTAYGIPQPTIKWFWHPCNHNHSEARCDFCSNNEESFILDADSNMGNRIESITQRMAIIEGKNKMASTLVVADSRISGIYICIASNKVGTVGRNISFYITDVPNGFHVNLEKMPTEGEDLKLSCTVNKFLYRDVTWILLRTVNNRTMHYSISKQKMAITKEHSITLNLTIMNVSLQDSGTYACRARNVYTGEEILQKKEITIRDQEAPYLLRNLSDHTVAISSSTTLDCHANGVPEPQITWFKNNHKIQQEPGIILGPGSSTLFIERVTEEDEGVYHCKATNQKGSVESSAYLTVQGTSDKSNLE

Molecule | fold reduction of KDR-binding affinity against native VEGF (KDR [1]) [fold] | Kd (KDR [2]) [pM] | Kd (Flt-1) [pM]
I43A/I46A/Q79A/I83A Flt-sel variant (from UniProt P15692 27-135) (ligand) | > 470 |  | 
B1 |  | 500 | 400
